The experiment has as its target human complement C1q (human). In words: ELISA. (In an ELISA, binding on a coated surface is turned into a signal by an enzyme label.)

Turning to “construct HLZ (6D8 heavy and light chains, C-terminal ZE3 fusion, no epitope tag) (antibody)”, the fold lower C1q binding than HLZd is 10 fold.

Values taken from PMC7746858.
